Source: the DeepSol protein solubility set

Test: soluble on expression in E. coli; label from the status in PepcDB or PDB records

Sequence | soluble on expression in E. coli
GPGSMPPAPAPPFSSVSQCLSALLPPTAFSLLPLTHTHTHTHTHRTCTHIIFSEPHIVFYCVCPFTRCHRRRPLPSPLSLSLPQHTTLSTAINKHEAEVVLDWSMSRLARALAKPFTVPVAMCTRHVAAMDEPLKRHIDAYAARGEDITIAVWREYVDGQRALLPYRWTKFRSEVAYLTSGQMAITDLTFADLLVFIRFLTKCLFIFIVAVMVGRRSVFPSLEPTSPFVEEIVKNWQPNRLHGVAGAEYMACDQAAAAGYGHR | soluble
VDLPGNDFDSNDFDAVDLWGADGAEGWTADPIIGVGSAATPDTGPDLDNAHGQAETDTEQEIALFTVTNPPRTVSVSTLMDGRIDHVELSARVAWMSESQLASEILVIADLARQKAQSAQYAFILDRMSQQVDADEHRVALLRKTVGETWGLPSPEEAAAAEAEVFATRYSDDCPAPDDESDPW | soluble
MQKPDESNEKHDIPCTSASLLDHLIQKEASAAEDTDPLDHIGNIGEAIIGQFSSGADVGTEILQNALKMFDQAMAYTNPQAPPKRKYKRKEAPIEDAQPTTTSSATLASLLTLNPVPIESSAKRFHQNDLRAGFSPRTKFDVDCSDFFLLQGSDADTQFNNLHKKLEKERTQMFDDQVSKDVERLLNTANRVHGPREWTAEEKAEFTSYCRSWRSGALGADDKLNLQKFYSKAYGKVFQGLSENKASSEESAIDFSNFMGVGSEDPANQTEDVPGGSCKASPDNFSFSTLNPRMKYEKEKEFRSAINNIFTEVFKEFHSKKQFIPKPTRLDVPPCEIEREHLSMLMSKFSIAMDDPEKEWNVDELQELRRFYTLFREKNHLPFVQTKEFGKFLRKAFGRLEHYELQRENDTSLQEKRKFWQEYRKTHVPPKRERKACAARTTPVRPYIKSNIDTKGETEEERRLRRAAYLRKWRLAQKEKHSADVMSQFKHQEDVAL | not soluble
MGHHHHHHSHMDDIFTQCREGNAVAVRLWLDNTENDLNQGDDHGFSPLHWACREGRSAVVEMLIMRGARINVMNRGDDTPLHLAASHGHRDIVQKLLQYKADINAVNEHGNVPLHYACFWGQDQVAEDLVANGALVSICNKYGEMPVDKAKAPLRELLRERAEK | not soluble
MSDSSPTNLPSRAFATQKLAKLIDRWTGNANQYDTPISGLRFSRWTTPTPPTSYTHNPSICLIAQGRKRVLLGEESFIYDANHFLISSVDLPIIANIIEASEEQPYLGLIMELDLTEISQLIVDSELAFTQSKEAQKGIAVGELSESLLDAFVRLAELLDEGQNIKILAPIIKREIFYRLLMSEQGTRLHQIATAGSHSHQIAKAIDWLKNNFVKPLSVGDLASYTGMSKSSFYTHFRSMTSMTPLQFQKKLRLSEARRLMLTENLDAMAATFKVGYESPSQFSREYSRLFGAPPSKDIKSLRENLG | not soluble
SLFAKATRNFLREVDADGDLIAVSNLNDSDKLQLLSLVTKKKRFWCWQRPKYQFLSLTLGDVLIEDQFPSPVVVESDFVKYEGKFANHVSGTLETALGKVKLNLGGSSRVESQSSFGTLRKQEVDLQQLIRDSAERTINLRNPVLQQVLEGRNEVLCVLTQKITTMQKCVISEHMQVEEKCGGIVGIQTKTVQVSATEDGNVTKDSNVVLEIPAATTIAYGVIELYVKLDGQFEFCLLRGKQGGFENKKRIDSVYLDPLVFREFAFIDMPDAAHGISSQDGPLSVLKQATLLLERNFHPFAELPEPQQTALSDIFQAVLFDDELLMVLEPVCDDLVSGLSPTVAVLGELKPRQQQDLVAFLQLVGCSLQGGCPGPEDAGSKQLFMTAYFLVSALAEMPDSAAALLGTCCKLQIIPTLCHLLRALSDDGVSDLEDPTLTPLKDTERFGIVQRLFASADISLERLKSSVKAVILKDSKVFPLLLCITLNGLCALGREHSEG | not soluble
MPRWRSAVEGLMLNRVVEQLTAQLPARNLGWVFPDETTAALLLDGPDGQPLGNLVLGYRPPQPVLFLSRERLRGDPHNPFQRLLATRVRGELLKIEQFKLDRVVALHFGPAEGFIDQPPARLLFEVTGRNANLLVMEEGEGFAGRITLAAREITGSRNRFRTIRSGGPYTPPPPYDKFDPRTMTPADAQTLAGVPLSEWRGRVDGLGPMLSAELARRAEMRPSQAPGDDWERAYDALKSLVADPSVSEGTLSEGAREAARQEKAGALRKLLREPLEKRVTLLENQLGDVTRAEEGVEIAAQDRAEADLLMAYAQTVEPGAASALLPSFDGEGEVPVSLEPQLSAVQNAEKRYARARRRDEVYLRLAEREGSIRSELEAARERLHRLDHAELEQLEQLASDLEREKPERS | not soluble
MSLRKEDKAAYRCLKAIKAGEKLTDAPAEDLPDLDLKPLEEMQNIYREHPEALQASVEIAEQCRVDVSLGQTRLPSFPTPDGTSADDYLTDICMEGLRSRFGKPDERYLRRLQYELDVIKRMKFSDYFLIVWDFMKHAHEKGIVTGPGRGSAAGSLVAYVLYITDVDPIKHHLLFERFLNPERVSMPDIDIDFPDTRRDEVIQYVQQKYGAMHVAQIITFGTLAAKAALRDVGRVFGVSPKEADQLAKLIPSRPGMTLDEARQQSPQLDKRLRESSLLQQVYSIARKIEGLPRHASTHAAGVVLSEEPLTDVVPLQEGHEGIYLTQYAMDHLEDLGLLKMDFLGLRNLTLIESITSMIEKEENIKIDLSSISYSDDKTFSLLSKGDTTGIFQLESAGMRSVLKRLKPSGLEDIVAVNALYRPGPMENIPLFIDRKHGRAPVHYPHEDLRSILEDTYGVIVYQEQIMMIASRMAGFSLGEADLLRRAVSKKKKEILDRERSHFVEGCLKKEYSVDTANEVYDLIVKFANYGFNRSHAVAYSMIGCQLAYLKAHYPLYFMCGLLTSEGHHHHHH | not soluble
MSDIPAGDYEKGKKVYKQRCLQCHVVDSTATKTGPTLHGVIGRTSGTVSGFDYSAANKNKGVVWTRETLFEYLLNPKKYIPGTKMVFAGLKKADERADLIKYIEVESAKSL | not soluble
MGSDKIHHHHHHCSDDDSVNEWDMSYVSLLPADYLRPTPSFTLKHVEEEGIEGSVEFQFMATTQKAVTQDINVHYSVTCDGIDANKINLSAKNLLIKAGSTASEPITLSITDWKYLENTKEALEYTLKIKIADIESTSAEVTNAAYYQEIVLKISKTAEKKKESVLLTNVKDWIFTFMTGVENSASNSVAGTGTNDVATNGVPFWLTVDFKEVKNVTGVQTTHWGAGYAPSKVEIFSSENGDDWVSIGQWDTKGRTQTITFDERVKTRYLKYQMITVPSRVDITRFYIYAW | not soluble
MMLSKVLRNSPLLFRVAQPKDHERIIKFLDKHFAKEEPCSRALKISPEISRGVFTATVTRCLTTPFSTVVLQENGDLAACLLASVWNRTDPLENADFDDTGLPENFKLFIQFLNKAHLNFWKIAPPNVNSIIHREIGSVAPQFTRLGIATKMVTTNMTKRNLKKYNIGGVLSETTSLANQIVLEKAGFKCLKELPYSTIVDSKGNQVLKLDDGTTSLCLNFKPIEEYENLPE | not soluble
MDLTELFAFLSIPSVSTDPARREDVRRAALWLEERLKARGFRTELHETPLHPILYAERFVDEKAPTVLVYGHYDVQPPDPLELWESPPFSPVVREGRIYARGAFDDKGQLFAHVLAAEEAPVNLKFLVEGEEEIGSPHLPPFVRANREKLRADVVLVSDGAMFAPHTPTLTYGLRGLCYLEVRLRGARRDLHSGAFGGVAPNPIQALGWLLARLKDEGTGRVLIPGFYERVRPVPEEEKALWPSLDEEALKRELGVEILPGEEGYAPLERLWARPTLDPNGIWGGYQGEGSKTVIPAEAGMKLSMRLVPDQDPEEVADQAEAYLKAVCPPGYALEVRRLHGGRPVLTDPFSPPMRLMARALEEVWGRPPVYTREGGTIPVVAELKETLGAPIVLLGLGLPDDNLHAPNEKLDLVNLEKGVEVIRRFHRLLAG | soluble
SKFIAKQSVGAEVIDTPRTEEEAWLLNTVEAQARQWNLKTPEVAIYHSPEPNAFATGASRNSSLIAVSTGLLDHMTRDEVEAVLAHEMAHVGNGDM | not soluble
EHAKQASSYIPLDRLSISYCRSSGPGGQNVNKVNSKAEVRFHLASADWIEEPVRQKIALTHKNKINKAGELVLTSESSRYQFRNLAECLQKIRDMIAEA | soluble
HHDITKVDTSGASEITARQDKLTLQGVDASHKLAEHDLVRMNKYKELITRVGQKHGLDPAIIAGIISRESRAGSALDHGWGDHGKGFGLMQVDKRYHKIVGAWDSEKHISQGTEILIEFIRRIQAKFPVWPKEHQLKGGISAYNAGDKNVRTYERMDVGTTGGDYSNDVVARSQWFKSQGY | soluble
